Two molecules from article PMC3991886, “Characterization of single-stranded DNA-binding proteins from the psychrophilic bacteria Desulfotalea psychrophila, Flavobacterium psychrophilum, Psychrobacter arcticus, Psychrobacter cryohalolentis, Psychromonas ingrahamii, Psychroflexus torquis, and Photobacterium profundum” (BMC Microbiology, 2014) can be followed below.

Series [1] concerns the target T1, PprSSB (Photobacterium profundum (LMG 19446), UniProt Q6LM83 5-187).
T1 sequence: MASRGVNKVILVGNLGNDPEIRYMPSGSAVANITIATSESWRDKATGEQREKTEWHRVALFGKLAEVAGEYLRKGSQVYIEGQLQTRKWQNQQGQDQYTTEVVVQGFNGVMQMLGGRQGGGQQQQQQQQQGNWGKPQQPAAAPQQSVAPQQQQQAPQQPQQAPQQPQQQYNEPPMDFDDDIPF
In words: fluorescence titration; 2-300 mM NaCl; site size 32 ± 2 nt; EMSA: 20 mM Tris-HCl pH 8.0, 100 mM NaCl, 1 mM EDTA, 25 C, 2% agarose in TAE; fluorescence titration: 20 mM Tris-HCl pH 8.0, 1 mM EDTA, 2/100/300 mM NaCl, 25 C. The following applies: protein: recombinant; tags: none (stop codon in reverse primer); chain copies: 4; label: none stated.

Series [2] concerns the target T2, PcrSSB (Psychrobacter cryohalolentis K5 (DSM …, UniProt Q1Q9B8 1-1+=G+2-219, internal_change)).
T2 sequence: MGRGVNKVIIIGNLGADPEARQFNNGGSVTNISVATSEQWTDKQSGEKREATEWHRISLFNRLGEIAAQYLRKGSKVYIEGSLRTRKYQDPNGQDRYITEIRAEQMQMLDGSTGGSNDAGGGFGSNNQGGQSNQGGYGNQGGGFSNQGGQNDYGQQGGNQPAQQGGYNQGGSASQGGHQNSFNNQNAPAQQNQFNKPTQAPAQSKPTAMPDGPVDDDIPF
Described as above. Particulars: protein: recombinant; tags: none (stop codon in reverse primer); chain copies: 4; label: none stated.

The target in series [3] is T3, PtoSSB (Psychroflexus torquis ATCC 700755 (LMG …, UniProt K4IS14 1-151)).
T3 sequence: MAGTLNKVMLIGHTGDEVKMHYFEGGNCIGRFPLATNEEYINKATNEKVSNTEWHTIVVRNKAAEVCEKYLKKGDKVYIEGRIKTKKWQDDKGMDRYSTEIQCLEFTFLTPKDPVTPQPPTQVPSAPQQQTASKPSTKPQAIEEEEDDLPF
The series is described as above. The following applies: protein: recombinant; tags: none (stop codon in reverse primer); chain copies: 4; label: none stated.

Series [4] concerns the target T1, PprSSB. In words: EMSA; complex I only; EMSA: 20 mM Tris-HCl pH 8.0, 100 mM NaCl, 1 mM EDTA, 25 C, 2% agarose in TAE; fluorescence titration: 20 mM Tris-HCl pH 8.0, 1 mM EDTA, 2/100/300 mM NaCl, 25 C. The following applies: protein: recombinant; tags: none (stop codon in reverse primer); chain copies: 4; label: 5'-fluorescein.
Series [5] addresses T2, PcrSSB. The series is described as above. The following applies: protein: recombinant; tags: none (stop codon in reverse primer); chain copies: 4; label: 5'-fluorescein.
A further series deals with T4, PinSSB (Psychromonas ingrahamii 37 (DSM 17664), UniProt A1T012 1-1+=G+2-222, internal_change).
T4 sequence: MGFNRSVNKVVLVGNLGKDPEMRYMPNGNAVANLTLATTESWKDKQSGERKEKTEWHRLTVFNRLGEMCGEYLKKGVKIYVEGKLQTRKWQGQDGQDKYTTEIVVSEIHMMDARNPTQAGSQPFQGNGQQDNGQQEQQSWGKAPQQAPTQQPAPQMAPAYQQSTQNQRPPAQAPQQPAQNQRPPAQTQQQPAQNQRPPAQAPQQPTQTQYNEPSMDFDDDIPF
Described as above. The following applies: protein: recombinant; tags: none (stop codon in reverse primer); chain copies: 4; label: 5'-fluorescein.

For series [6], the target named is T3, PtoSSB. The series is described as above. The following applies: protein: recombinant; tags: none (stop codon in reverse primer); chain copies: 4; label: 5'-fluorescein.

B1: (dT)76 (ssDNA)
DNA: TTTTTTTTTTTTTTTTTTTTTTTTTTTTTTTTTTTTTTTTTTTTTTTTTTTTTTTTTTTTTTTTTTTTTTTTTTTT
Regarding B1, the binding signal with PprSSB [1] is 90 ± 3 % Trp fluorescence quench at saturation; with PcrSSB [2] it was 93 ± 3 % Trp fluorescence quench at saturation; with PtoSSB [3], 93 ± 3 % Trp fluorescence quench at saturation.

For the molecule TTTTTTTTTTTTTTTTTTTTTTTTTTTTTTTTTTT (ssDNA) [(dT)35], the binding result in the series with PprSSB [4], in the series with PcrSSB [5], in the series with PinSSB and with PtoSSB [6] was “binds” in each case.
